The values below come from publication PMC11995187, “Specificity landscapes of 40 R2R3‐MYBs reveal how paralogs target different cis‐elements by homodimeric binding”.

The target of one data set is T1, AtMYB2 homodimer (Arabidopsis thaliana, UniProt Q39028 1-273).
T1 sequence: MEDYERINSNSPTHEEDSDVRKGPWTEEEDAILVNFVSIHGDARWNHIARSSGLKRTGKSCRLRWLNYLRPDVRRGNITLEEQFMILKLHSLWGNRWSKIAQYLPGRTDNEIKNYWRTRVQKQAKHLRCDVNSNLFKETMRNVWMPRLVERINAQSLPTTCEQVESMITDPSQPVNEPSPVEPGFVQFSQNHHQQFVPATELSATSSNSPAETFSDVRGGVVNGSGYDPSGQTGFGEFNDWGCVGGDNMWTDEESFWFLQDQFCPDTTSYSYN
Briefly: EMSA; 18-48 ng/uL protein; monomer band also seen, dimer band at 36 and 48 ng/uL; EMSA: 10 mM Tris pH 7.5, 50 mM KCl, 10 ng DNA in 20 uL, 25 C, 1 h; 6% native PAGE, 0.5x TBE, 4 C. The note with it: protein: recombinant; tags: His; chain copies: 2; label: none (gel stain); (annealed oligonucleotides).

Another data set addresses T2, AtMYB2 (Arabidopsis thaliana, UniProt Q39028 1-273).
T2 sequence: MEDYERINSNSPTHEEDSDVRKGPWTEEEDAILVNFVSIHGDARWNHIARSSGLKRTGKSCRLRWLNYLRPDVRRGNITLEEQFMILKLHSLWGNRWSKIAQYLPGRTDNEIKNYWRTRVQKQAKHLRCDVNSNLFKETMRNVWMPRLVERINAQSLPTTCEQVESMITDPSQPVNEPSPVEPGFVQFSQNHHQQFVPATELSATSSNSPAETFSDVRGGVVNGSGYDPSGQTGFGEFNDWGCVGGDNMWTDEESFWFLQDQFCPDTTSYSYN
Briefly: EMSA; 24-48 ng/uL protein; single-molecule shift only, no dimer band; EMSA: 10 mM Tris pH 7.5, 50 mM KCl, 10 ng DNA in 20 uL, 25 C, 1 h; 6% native PAGE, 0.5x TBE, 4 C. The note with it: protein: recombinant; tags: His; label: none (gel stain); (annealed oligonucleotides). In general terms: A gel shift assay detects complexes by their altered migration in electrophoresis.

B1: ER8 (dsDNA)
DNA 1: GATCCAATTGGTTAGGTCGATCTCAACCTAACATCAATGCCA
DNA 2: TGGCATTGATGTTAGGTTGAGATCGACCTAACCAATTGGATC
For B1, in the data set with AtMYB2 homodimer, the binding result is “binds”.

B2: Ma (dsDNA)
DNA 1: GATCCAATTGACCACTACGTTAGGTAATGGACATCAATGCCA
DNA 2: TGGCATTGATGTCCATTACCTAACGTAGTGGTCAATTGGATC
For the molecule B2, in the data set with AtMYB2, the binding result is recorded as “binds”.

B3: ER1a (dsDNA)
DNA 1: GATCCAATTGGTTTGGTCACCGATTTAACCTCATCAATGCCA
DNA 2: TGGCATTGATGAGGTTAAATCGGTGACCAAACCAATTGGATC
For the molecule B3, the binding result with AtMYB2 homodimer is given as “binds”.
